What is called Kd is the free concentration of one partner at which half of the binding sites on the other are occupied at equilibrium, for simple one-to-one binding.

The record followed here is paper PMC12314560.

This assay has as its target Angiotensin-converting enzyme 2 (recombinant human ACE2 protein-mFc Tag) (human) (UniProt Q9BYF1). Put plainly: BLI.
Sequence of UniProt Q9BYF1 (Q9BYF1 18-740): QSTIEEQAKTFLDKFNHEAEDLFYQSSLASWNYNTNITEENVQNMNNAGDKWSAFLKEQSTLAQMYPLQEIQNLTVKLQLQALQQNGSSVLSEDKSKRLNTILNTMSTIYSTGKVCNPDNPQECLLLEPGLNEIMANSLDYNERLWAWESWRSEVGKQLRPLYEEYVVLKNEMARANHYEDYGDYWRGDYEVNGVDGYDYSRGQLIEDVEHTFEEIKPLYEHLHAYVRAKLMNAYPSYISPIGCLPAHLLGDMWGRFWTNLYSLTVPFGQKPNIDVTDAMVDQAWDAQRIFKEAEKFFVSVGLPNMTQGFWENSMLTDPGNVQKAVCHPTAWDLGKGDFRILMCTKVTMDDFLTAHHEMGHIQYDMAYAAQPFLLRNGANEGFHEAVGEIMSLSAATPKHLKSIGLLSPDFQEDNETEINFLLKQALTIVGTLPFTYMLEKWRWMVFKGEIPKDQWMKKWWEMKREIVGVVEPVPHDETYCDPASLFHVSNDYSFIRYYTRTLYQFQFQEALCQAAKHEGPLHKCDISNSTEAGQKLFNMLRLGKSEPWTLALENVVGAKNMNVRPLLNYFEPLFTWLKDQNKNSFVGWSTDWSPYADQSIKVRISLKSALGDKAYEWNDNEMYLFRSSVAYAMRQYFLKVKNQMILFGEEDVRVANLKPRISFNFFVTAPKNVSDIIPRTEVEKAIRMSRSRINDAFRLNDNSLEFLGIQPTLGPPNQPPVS

For Beta S1 protein (domain or fragment), the Kd came out at 0.472 nM.
